The target in the assay is amyloid beta-protein 40 (Aβ40) (human) (UniProt P05067).

From US20230173039A1 come the findings set out here.

As for “plasminogen isolated and purified from plasma of a human donator (enzyme)”, the Aβ40 content by Tricine-SDS-PAGE with quantitative scanning (solvent control defined as 100%) was 74.8%.
